Among the data in patent US20120263675A1 (REGENTS OF THE UNIVERSITY OF MICHIGAN, published 2012) are Kd values, retold here.

Square brackets hold non-standard residues; d marks the D form. Ends that are not written are not given here. * marks the point of attachment. 5FAM = O=C1OC2(c3ccc(O)cc3Oc3cc(O)ccc32)c2ccc(C(=O)*)cc21; Abu = CC[C@H](N)C(=O)O

The target of assay [1] is T1, Human cIAP2 BIR3-only (residues 238-349) (human, UniProt Q13489 238-349).
T1 construct: range 238-349; Cloned into pHis-TEV vector, produced and purified as for XIAP BIR3; also called cIAP-2 BIR3 protein; not shown: tag from pHis-TEV vector
The assay can be described thus: fluorescence polarization, tracer binding to cIAP-2 BIR3.

Assay [2] deals with T2, Human cIAP-1 BIR3-only (residues 253-363) (human, UniProt Q13490 253-363).
T2 construct: range 253-363; Cloned into pHis-TEV vector, produced and purified as for XIAP BIR3; also called cIAP-1 BIR3 protein; not shown: tag from pHis-TEV vector
As to the kind of experiment: fluorescence polarization, tracer binding to cIAP-1 BIR3.

The target of assay [3] is T3, Human XIAP BIR3-only (residues 241-356) with N-terminal 6x His tag (human, UniProt P98170 241-356).
T3 construct: range 241-356; Recombinant, produced in E. coli BL21(DE3); also called XIAP BIR3 protein; not shown: N-terminal 6x His tag from pET28 vector
The assay can be described thus: fluorescence polarization, tracer binding to XIAP BIR3. An excerpt:
The FP-based assay for XIAP BIR3 protein was described in detail previously (Nikolovska-Coleska et al., Anal. Biochem. 332:261-73 (2004)). Briefly, 5-carboxyfluorescein was coupled to the lysine side chain of a mutated Smac peptide with the sequence (AbuRPFK-Fam) and this fluorescently tagged peptide (named SM5F) was used as the fluorescent tracer in FP-based binding assay to XIAP BIR3.

T1 sequence (Q13489 238-349): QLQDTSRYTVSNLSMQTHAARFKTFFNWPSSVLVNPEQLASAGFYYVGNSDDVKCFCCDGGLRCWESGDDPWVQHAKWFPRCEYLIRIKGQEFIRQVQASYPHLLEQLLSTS
T3 sequence (P98170 241-356): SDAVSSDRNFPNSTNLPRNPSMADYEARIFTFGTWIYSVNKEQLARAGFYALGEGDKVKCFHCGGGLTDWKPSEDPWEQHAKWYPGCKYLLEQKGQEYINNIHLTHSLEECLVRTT
T2 sequence (Q13490 253-363): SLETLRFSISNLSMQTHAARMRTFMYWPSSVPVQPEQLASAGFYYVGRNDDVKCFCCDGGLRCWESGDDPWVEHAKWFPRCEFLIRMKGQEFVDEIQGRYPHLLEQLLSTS

B1: SM5F, fluorescently tagged mutated Smac peptide (AbuRPFK-Fam) (peptide)
peptide: [Abu]RPFK(5FAM)
notes: Mutated Smac N-terminal peptide used as tracer in the FP assays; also called fluorescent tracer
In the case of B1, the Kd in assay [1] was 6.6 nM; in assay [2], 4.1 nM; in assay [3], 17.9 nM.
